Reference: the RNAGym collection of RNA variant scans (doi:10.1073/pnas.2313332121)

B1: TPR t1 (parent)
chain: GACCAAUCUGCCCUCAGAGCUCGAGAACAUCUUCGGAUGCAGAGGAGGCAGGCUUCGGUGGCGCGAUAGCGCCAACGUCCUCAACCUCCAAUGCAUCCCACCACAUGAUGAUGCCUGAAGAGCCUUGGUUUUUUG

Variants of: B1
Assay: polymerase ribozyme fitness, log enrichment relative to wild type (log ratio); higher = more active; in vitro selection for triplet polymerase activity
Summary of the method: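 Streptavidin-bead capture of gel-excised extended constructs, followed by RT-PCR, closed a single triplicate in vitro selection round. That round began by annealing PCR-built, transcribed mutant libraries of each subunit of a heterodimeric triplet polymerase ribozyme with a biotinylated primer, the partner subunit and triplets, then incubating them frozen at −7 °C. After Illumina sequencing of inputs and outputs, genotypes needed ≥10 input reads and ≥1 read per output. Fitness is the base-2 logarithm of genotype enrichment over wild-type enrichment, using inverse-variance-weighted replicate averages.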

| Variant | polymerase ribozyme fitness (log ratio) |
| --- | --- |
| GACCAAUCUGUCCUCAAAGCUCGAGAACAUCUUCGGAUGCAGAGGGGGCAGGCUUCCGUGGCGCGAUAGCGUCAACGUCCUCAACCUCCAAUGCAUCCCACCACAUGAUGAUGCAUGAACAGCCUUGGUUUUUAG [C11U G17A A46G G57C C72U C115A G120C U134A] | -0.588 |
| GACCAAUCUGUCCUCAGAGCUCGAGAACAUCUUCGGAUGCAGAGGAGGCAGGUUUCGGUGGUGCGAUAGCGCCAACGUCCUCAACCUCCAAUGCAUCCCACCACAUGAUAAUGCCUGAAGAGCCUUGGAUUUUUG [C11U C53U C62U G110A U129A] | -4.11 |
| GACCAAUCUGUCCUCACAGCUCGAGAACAUCUUCGGAUGCAGAGGAGGAAGGCUUCGCUGGCGCGAUAGCGCCAACGUCCUCAACCUCCAAUGCAUCCCACCACAUGAUGAUGCCUGAAGAGCCUUGGUUUUUUG [C11U G17C C49A G58C] | -6.04 |
| GACCAAUCUGUCCUCAGAGCUCGAGAACAUCUUCGGAUGCAGAGGAGGCAGGCUUCGGUGGCGCGAUAGCGCCAACGUCCUCAACCUCCAAUGCAUCCCAUCACAUGAUGAUGCCUGAAGAGCCUUGGUUUUUUG [C11U C101U] | -0.727 |
| GACCAAUCUGUCCUCAGAACUCGAGAACAUCUUCGGAUGCAGAGGAGGUAGGCUUUGGUGGCGCGUUAGCGCCAACGUCCUCAACCUCCAAUGCAUCCCACCACAUGAUGAUGUCUGAAGAGCCUUGGUUUUUUG [C11U G19A C49U C56U A66U C114U] | -2.83 |
| GACCAAUCUGUCCUCAGAGCUCGAGAACAUCUUCGGAUGCAGAGGAGGCAGGCUUCGGUGGCGCGAUAGCGCCAACGUCCUCAACCUCCAAUGCAUCCCACCACAUGAUGAUGACUGAAGAGUCUUGGUUUUUUG [C11U C114A C123U] | -2.21 |
| GACCAAUCUGUCCUCAGAGCUCGAGAACAUCUUCGGAUGCAGAGGAGGCAGGCUUCGGUGGCGCGAUAGCGCCAACGUCCUUAACCUCCAAUGCAUCCCACCACAUGAUGAUGCCUGAAGAGCCUUGGUUUUUUG [C11U C82U] | -1.45 |
| GACCAAUCUGUCCUCAGAGCUCGAGAACAUCUUCGGAUGCAGAGGAGGCAGGCUUCGGUGGCGCGAUAGCGCCAACGUCCUCAACCUCCAAUGCAUCCCACCAUAUGAUGAUGCCUGAAGAGCCUUGGUUUUUUG [C11U C104U] | -1.3 |
| GACCAAUCUGUCCUCAGAGCUCGAGAACAUCUUCGGAUGCAGAGGAGGCAGGCUUCGGUGGCGCGAUAGCGCCAACGUCCUCAACCUCUAAUGCAUCCUACCACAUGAUGAUGCCUGAAGUGCCUUGGUUAUUUG [C11U C89U C99U A121U U131A] | -1.82 |
| GACCAAUCUGUCCUCAGAGCUCGAGAACAUCUUCGGAUGCAGAGGAGGCAGGCUUUGGUGGCGCGAUAGCGCCAACGUCCUCAACCUCCAAUGCGUCCCACCACAUGAUGAUGCCUGAAGAGCCUUGGUUUUUUG [C11U C56U A95G] | -0.936 |
| GACCAAUCUGUCCUCAGAGCUCAAGAACAUCUUCGGAUGCAGAGGAGGCAGGCUUCGGUGGCGCGAUAGCGCCAACGUCCUCAACCUCCAAUGCAUCCCACCACAUGAUGAUGCCUGAAGAGCCUUGGUUUUUUG [C11U G23A] | -5.77 |
| GACCAAUCUGUCCUCAGAGCUCGAGAACAUCUUCGGAUGCAGAGGAGGCAGGCUUCGGUGGCGCGAUAGCGCCAACGUCCUCAACCUCCAAUGCAUUCCACCACAUGAUGAUACCUGAAGAGCCUUGGUUUUUUG [C11U C97U G113A] | -1.74 |
| GACCAAUCUGUCCUCAGAGCUCGAGAACAUCUUCGGAUGCAGAGGAGGCAGGCUUCGGUGGCGAGAUAGCGCCAACGUCCUCAACCUCCAAUGCAUCCCACCACAUGAUGAUGCCUGAAGAGCCUUGGUUUUUUG [C11U C64A] | -4.93 |
| GACCAAUCUGUCCUCAGAGCUCGAGAACAUCUUCGGAUGCAGAGGAGGCAGGCUUCGGUGGAGCGAUAGCGCCAACGUCCUCAACCUCCAAUGCAUCCCACCACAUGAUGAUGCCUGAAGAGCCUUGGUUUUUUG [C11U C62A] | -1.39 |
| GACCAAUCUGUCCUCAGAGCUCGAGAACAUCUUCGGAUGCAGAGGAGGCAGGUUUCGGUGGCGCGAUAGCGCUAACGUCCUCAAACUCCAAUGCAUCCCACCACAUGAUGAUGCCUGAAGGGGCUGGGCAUUUUG [C11U C53U C73U C85A A121G C123G U126G U129C U130A] | -3.11 |
| GACCAAUCUGUCCUCAGAGCUCGAGAACAUCUUCGGAUGCAGAGGAGGCAGGAUUCGGUGGCGCGAUAGCGCCAACGUCCUCAACCUCCAAUGCAUCCCACCACAUGAUGAUGCCUGAAGAGCCUUGGUUUUUUG [C11U C53A] | -0.286 |
| GACCAAUCUGUCCUCAGAGCUCGAGAACAUCUUCGGAUGCAGAGGAGGCAGGGUUCGGUGGCGCGAUAGCGCCAACGUCCUCAACCUCCAAUGCAUCCCACCACAUGAUGAUGCCUGAAGAGCCUUGGUUUUUUG [C11U C53G] | -0.654 |
| GACCAAUCUGUCCUCAGAGCUCGAGAACAUCUUCGGAUGCAGAGGAGGCAGGUUUCGGUGGCGCGAUAGCGCCAACGUCCUCAACCUCCAAUGCAUCCCACCACAUGAUGAUGCCUGAAGAGCCUUGGUUUUUUG [C11U C53U] | 0.00138 |
| GACCAAUCUGUCCUCAGAGCUCGAGAACAUCUUCGGAUGCAGAGGAGGCAGGCUUCGGUGGCGCGAUAGCGCCAACGUCCUCAACCUCCAAUGCAUCCCACCACAUGAUGAUGCCUGAAGAGGCUUGGUUUUUUG [C11U C123G] | 1.73 |
| GACCAAUCUGUCCUCAGAGCUCGAGAACAUCUUCGGAUGCAGAGGAGGCAGGCUUCGGUGGCGCGAUAGCGCCAACGUCCUCAACCUCCAAUGCAUCCCACCACAUGAUGAUGCCUGAAGAGACUUGGUUUUUUG [C11U C123A] | 0.93 |
| GACCAAUCUGUCCUCAGAGCUCGAGAACAUCUUCGGAUGCAGAGGAGGCAGGCUUCGGUGGCGCGAUAGCGCCAACGUCCUCAACCUCCAAUGCAUCCCACCACAUGAUGAUGACUGAAGAGCCUUGGUUUUUUG [C11U C114A] | -1.22 |
